Article PMC2175255

Biological target: erbB2 receptor tyrosine kinase (rat (endogenous in primary Schwann cells)) (UniProt P06494)
Assay: co-IP

Chain of UniProt P06494 (P06494 23-1257): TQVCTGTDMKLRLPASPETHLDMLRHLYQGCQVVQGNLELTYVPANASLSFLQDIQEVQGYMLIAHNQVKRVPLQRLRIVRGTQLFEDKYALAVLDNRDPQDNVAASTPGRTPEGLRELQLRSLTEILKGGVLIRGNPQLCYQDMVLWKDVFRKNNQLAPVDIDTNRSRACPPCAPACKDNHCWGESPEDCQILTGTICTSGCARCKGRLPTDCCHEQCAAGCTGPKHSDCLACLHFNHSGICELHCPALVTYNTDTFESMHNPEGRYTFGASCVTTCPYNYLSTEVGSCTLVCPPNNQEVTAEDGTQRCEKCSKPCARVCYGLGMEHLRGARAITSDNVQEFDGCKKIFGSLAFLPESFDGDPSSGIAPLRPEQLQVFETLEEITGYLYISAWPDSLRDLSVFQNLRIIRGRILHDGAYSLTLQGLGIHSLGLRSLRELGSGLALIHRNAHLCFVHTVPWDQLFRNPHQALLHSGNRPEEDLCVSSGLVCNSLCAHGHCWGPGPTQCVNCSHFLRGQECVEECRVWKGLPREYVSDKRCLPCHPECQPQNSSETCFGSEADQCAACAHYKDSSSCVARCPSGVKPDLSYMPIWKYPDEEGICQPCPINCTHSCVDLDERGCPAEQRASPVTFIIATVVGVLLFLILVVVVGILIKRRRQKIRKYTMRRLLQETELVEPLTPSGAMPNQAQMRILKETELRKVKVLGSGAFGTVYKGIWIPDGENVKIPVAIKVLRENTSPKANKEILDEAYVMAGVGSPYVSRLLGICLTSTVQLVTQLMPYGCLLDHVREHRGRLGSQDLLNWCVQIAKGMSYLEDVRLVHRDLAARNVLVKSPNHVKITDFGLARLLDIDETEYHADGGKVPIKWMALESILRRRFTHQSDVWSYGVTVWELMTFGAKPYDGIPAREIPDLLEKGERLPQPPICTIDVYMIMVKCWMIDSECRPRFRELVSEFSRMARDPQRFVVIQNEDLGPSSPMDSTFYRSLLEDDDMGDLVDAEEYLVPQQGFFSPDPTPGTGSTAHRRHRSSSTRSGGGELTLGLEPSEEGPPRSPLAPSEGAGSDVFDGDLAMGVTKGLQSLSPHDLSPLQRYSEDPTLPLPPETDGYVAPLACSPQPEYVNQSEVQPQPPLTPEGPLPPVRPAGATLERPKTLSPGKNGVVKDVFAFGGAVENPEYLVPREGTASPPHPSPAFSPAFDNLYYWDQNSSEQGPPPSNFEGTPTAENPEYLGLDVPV

fold CD44 co-immunoprecipitated with rh-GGF2 against untreated cells: 2 fold
Substance: CD44 transmembrane glycoprotein (from UniProt P26051 22-503) (natural protein)
